Test results as given in patent US20250382354A1.

Assays:
Assay in all cases: peptide ELISA
[1] = molecular target: SARS-CoV-2 HR2 peptide (SARS-CoV-2), P0DTC2
[2] = molecular target: HKU4 HR2 peptide (HKU4), A3EX94
MHV HR2 peptide (MHV) = molecular target: MHV HR2 peptide (MHV)
[3] = molecular target: HKU5 HR2 peptide (HKU5), A3EXD0
SADS HR2 peptide (SADS) = molecular target: SADS HR2 peptide (SADS)
[4] = molecular target: OC43 FP peptide (OC43), P36334
HKU1 FP peptide (HKU1) = molecular target: HKU1 FP peptide (HKU1)
[5] = molecular target: SARS-CoV-2 FP peptide (SARS-CoV-2)
[6] = molecular target: MERS FP peptide (MERS), K9N5Q8
229E FP peptide (229E) = molecular target: 229E FP peptide (229E)
[7] = molecular target: NL63 FP peptide (NL63), Q6Q1S2
[8] = molecular target: SARS-CoV FP peptide (SARS-CoV), P59594

Binder | EC50 [1] [µg/mL] | EC50 [2] [µg/mL] | EC50 (MHV HR2 peptide (MHV)) [µg/mL] | EC50 [3] [µg/mL] | EC50 (SADS HR2 peptide (SADS)) [µg/mL] | EC50 [4] [µg/mL] | EC50 (HKU1 FP peptide (HKU1)) [µg/mL] | EC50 [5] [µg/mL] | EC50 [6] [µg/mL] | EC50 (229E FP peptide (229E)) [µg/mL] | EC50 [7] [µg/mL] | EC50 [8] [µg/mL]
hr2.020 (antibody, V domains shown) VH: EVQLVQSGAEVKKPGESLKISCKGSGYRFASHWIGWVRQMPGKGLQWMGIIYPGDSDTKYSPSFQGQVTISADKSINTVYLHWTSLKASDTAVYYCARRPPHLDGGDSPIRFDHWGQGTLVTVSS VL: QSVLTQPPSASGTPGQRVTISCSGSRSNIGSNDVYWYQQFPGTAPKLLIYRNNQRPSGVPDRFSGSKSGTSASLAISGLRSEDEADYYCATWDDRLTGVFGGGTKLTVV | 0.0353 | 0.0352 | 0.0285 | 0.0631 |  |  |  |  |  |  |  | 
hr2.014 (antibody, V domains shown) VH: QVQLVQSGAEVKKPGASVKVSCKASGYTFTTYAVHWLRQVPGQRPEWIGWINAANGNTKYSEKFQGRVTITRDTSASTAYMDLRSLRSEDTAVYYCARLLVVRDDPYYYGMDVWGQGTTVTVSS VL: not shown | 0.0357 | 0.0457 |  | 0.0312 | 0.705 |  |  |  |  |  |  | 
hr2.018 (antibody, V domains shown) VH: EVQLVESGGGLVKPGGSLRLSCVASGSSVIDAWMNWVRQAPGKGLEWVGRIKSKTNGATTDYAAPVKGRFTISRDDSKNLSYLQMNSLKTEDTGIYYCTTSPLPNFDYWGRGTLVTVSS VL: not shown | 0.0336 | 0.0417 |  |  |  |  |  |  |  |  |  | 
hr2.019 (antibody, V domains shown) VH: EVQLVESGGGLVKPGGSLRLSCAASGSSVIDVWMNWVRQAPGKGLEWVGRIKTKASGAATDYGAPVKGRFTISRDDSKNLSYLQMNSLRAEDTGIYYCTTSPLPNFDYWGRGTLVTVSS VL: DIVMTQSPDFLAVSLGETATINCRSSQSVFYFANNKNYLAWYQQKPGQPPKLLIYWASKRESGVPDRFSGSGSGTDFTLTISSLQAEDVATYYCQQYSSPAITFGPGTKVDIK | 0.0267 | 0.0154 |  | 0.0505 |  |  |  |  |  |  |  | 
hr2.090 (antibody, V domains shown) VH: EVQLLESGGGLVQPGGSLRLSCAASGVTFSRYAMSWVRQAPGKGLEWVSTISGGGGGTYYADSVKGRFTISRDNSKNTLYLQMNSLRAEDTAVYYCATLLTVPGPYYFEYWGQGTLVTVSS VL: EIVLTQSPGTLSLSPGERATLSCRASQSVSSSYLAWYQQKPGQAPRLLIYGASSRATGIPDRFSGSGSGTDFTLTISRLESEDFAVYYCQHSRFTFGPGTRVDIK | 0.085 | 0.425 | 0.761 |  |  |  |  |  |  |  |  | 
hr2.021 (antibody, V domains shown) VH: QVQLVQSGAEVKKPGASVKVSCKASEAIFSGSYLHWVRQAPGQGLEWMGIITPSGDKTFYAQRFQGRLTMTRDTSTNTLHMHLSGLNSEDTAMYYCARQADKGGWDYWGQGTLVTVSS VL: EIVLTQSPGTLSLSPGERATLSCRASQSVTSNYVAWYQQKPGQAPRLLIYGASTRATGIPDRFSGGGSGTDFTLTITRLEPEDFAVYYCQQYGSSPPTFTFGPGTKVDIK | 0.0242 | 0.021 | 0.0333 | 0.0551 |  |  |  |  |  |  |  | 
hr2.023 (antibody, V domains shown) VH: QVQLVQSGAEVKKPGASVKVSCRASENIFSDSYLHWVRQAPGQGLEWMGIITPSGDKTFYAQQFQGRLTMTRDTPTNTLHMDLRGLTSADTAIYYCARQATKGGWDYWGQGTLVTVSS VL: EIVLTQSPGTLSLSPGESATLSCRASQSVTRNYLAWYQQQPGQAPRLLIYGASNRATGVPDRFSGSGSGTDFTLTISRLEPEDFAVYYCQQYGSSPPTFIFGPGTKVDIK | 0.0175 | 0.0149 | 0.0106 | 0.0422 |  |  |  |  |  |  |  | 
hr2.024 (antibody, V domains shown) VH: QVQLVQSGAEVKKPGASVKVSCKASEDIFTDSYLHWVRQAPGQGLEWMGIITPSGDKTFYAQQFQGRLTMTRDPSTNTLYMFLSGLRSDDTAMYFCARQAEKGGWDYWGHGTLVTVSS VL: EIVLTQSPGTLSLSPGQRATLSCRSSQTITSNYLAWYQQRPGQAPRLLIYGASIRATGIPDRFSGSGSGTDFTLTISRLEPEDFAVYYCQQYGSSPPTFIFGPGTKVDIK | 0.106 | 0.0184 | 0.0259 | 0.048 |  |  |  |  |  |  |  | 
hr2.086 (antibody, V domains shown) VH: EVQLLESGGGLVQPGGYLRLSCAASGFTFSSYAMSWVRQAPGKGLEWVSVISGGGGSAYYADSVKGRFTISRDNSKNTLYLQMNSLRAEDTAVYYCAKIGMILVFDYWGQGTLVTVSS VL: EIVLTQSPGTLSLSPGERATLSCRASQSVSNNYLAWYQQKPGQAPRLLISGASSRATGIPDRFSGSGSGTDFTLTISRLEPEDFAVYYCQQYGSSPPTFGQGTKVEIK |  | 0.0269 |  |  |  |  |  |  |  |  |  | 
hr2.016 (antibody, V domains shown) VH: EVQLLESGGGLVQPGGSLRLSCAASGFMFSKYAMTWVRQTPGKGLEWVSVISGGGGSTYYADSVKGRFTISRDNSKNTLYLQMNSLRAEDTAVYYCAKLLVVFVIDYWGQGALVTVSS VL: EIVLTQSPGTLSLSPGERATLFCRASQSVSSNLAWYQQKPGRAPRLLISGASSRATGIPDRFSGSGSGTDFTLTISRLEPEDFAVYYCQQYGSSPPTFGQGTKVEIK |  | 0.00744 | 0.0266 | 0.0256 | 0.0738 |  |  |  |  |  |  | 
fp.001 (antibody, V domains shown) VH: VQLVESGGGVVQPGRPLRLSCSGSGFIFSNYAMHWVRQAPGKGLEWVAIISFDARNKRYADSVEGRFTISRDNSKNILYLQMNSLRLEDSAVYFCARDLFLSDYDNGVYDPTRGGFDYWGQGTLVTVSS VL: EIVMTQSPATLSLSPGERATLSCRASQSVNNRLAWYQQKLGQPPRLLISGASTRATGIPARFTGSGSGTEFTLTISSLQSEDFAVYYCQQYHDWPLLSFGGGTKVEIK |  |  |  |  |  | 0.0175 | 0.0298 | 0.0249 | 0.0369 | 0.0232 | 0.0214 | 0.0289
fp.010 (antibody, V domains shown) VH: EVQLLESGGGLVQPGGSLRLSCAASGFTFSTYAMNWVRQAPGKGLEWVSAISSSGLSTQYADSVRGRFTISRDTSKNTLYLHMNSLRAGDTAVYYCAKVEYSGYDPRGPFDSWGQGTLVTVSS VL: DIQMTQSPSTLSASVGDRVTITCRASQSISGWLAWYQQKPGRAPKLLIYKASSLERGVPSRFSGSGSGTEFTLTISSLQPDDFATYYCQEYSSYPLCTFGQGTKLEIK |  |  |  |  |  | 0.0421 | 0.0372 | 0.119 | 0.0593 | 0.135 | 0.0451 | 
hr2.012 (antibody, V domains shown) VH: QVQLVQSGAEVKKPGASVKVSCKASGYTFTSHYIHWVRQAPGQGLEWMGIIKPSGGNTIYAQTFQGRVTMTRDTSTSTVYMELRSLTSDDTAVYYCARDQDHGLQRWGQGTLVTVSS VL: QSVLTQPPSVSAPPGQKVTISCSGSSSNIGNNFVSWYQQLPGTAPKLLIYDNIERPSGIPDRFSGSRSGTSATLGITGLQTGDEADYYCGTWDTSLGAWVFGGGTKVTVL | 0.0196 | 0.0184 | 0.0177 | 0.0204 | 0.023 |  |  |  |  |  |  | 
hr2.013 (antibody, V domains shown) VH: QVQLVQSGAEVKKPGASVKISCKASGYTFTNNYMNWVRQAPGQGLEWMGIIKPSSGSTIYAHKFQGRVTMTRDTSTSTVYMEVRSLTSEDTAVYYCARDQDHGLQNWGQGTLVTVSS VL: QSVLTQPPSVSAASGQKVTIYCSGSSSNIASNFVSWYQQFPGTAPKLLIYDNNQRPSGIPDRFSGSRSGTSATLGITGLQTGDEADYYCGTWDTSLGAWVFGGGTKLTVL | 0.0317 | 0.0181 | 0.043 | 0.0292 | 0.042 |  |  |  |  |  |  | 
fp.008 (antibody, V domains shown) VH: VQLVESGGGVVQPGRSLRLSCRASGFRFNNYAMHWVRQAPGKGLEWVAIISYEARNEKYAASVKGRFSISRDNAKNTLYLQMNSLRPEDTAIYYCARDVFLSDYDQSGYDVTRGGFDYWGQGTLVTVSS VL: EIVMTQSPATLSVSPGESATLSCRASQSVSSSLAWYQHKFGQAPRLLIYGASTRATGIPDRFSGSGSGMEFTLTISSLQSEDVAIYYCQQYGDWPLVTFGGGTKVEIK |  |  |  |  |  | 0.0235 | 0.0219 | 0.0366 | 0.0361 | 0.019 | 0.0226 | 0.0267
hr2.017 (antibody, V domains shown) VH: EVQLVESGGGLVQPGGSLRLSCAVSGFAFSSSWMHWIRQAPGRGLVWVSRINRDGSTTDYADSVKGRFTISRDNAKATLYLQMNSLRAEDTAVYYCATMGFDYWGQGALVTVSS VL: DIVMTQSPDSLAVSLGERATINCKSSQNVLYSSNNKNHLSWYQQKPGQPPKLLIYWASTRKSGVPDRFSGSGSGTDFTLTINSLQAEDVAVYYCQQYFSTPNTFGQGTKLEIK | 0.0145 | 0.0203 | 0.02 | 0.0249 |  |  |  |  |  |  |  | 
fp.011 (antibody, V domains shown) VH: EVQLLESGGGLVQPGGSLRLSCAGSGFTFNNYAMTWVRQAPGRGLEWVSAISGSGGSSHYADSVKGRFTITRDNSKNTLYLQMNSLRAEDTAVYYCAFIDYYSGWSYYYGLDVWGQGTTVTVSS VL: EIVLTQSPATLSLSPGERATLSCRASQGVRTYVAWYQQKPGQAPRLLIYDASNRATGIPARFSGSGSGTDFTLTISSLEPEDFAVYYCQQRYNWPLCSFGQGTKLEIK |  |  |  |  |  | 0.0218 | 0.0197 | 0.0363 | 0.0363 | 0.0503 | 0.0261 | 0.023
